Results: patent publication US11142588B2, “Polypeptides which bind C-X-C chemokine receptor type 4 (CXCR4) and methods of treating or reducing the risk of fibrosis and cancer” (AdAlta Limited, priority 2015, dated 2021)
Where a chain is given by its changes, count along the chain named. Where “and” joins values, the source holds several entries; their conditions need not be identical. Equal entries are not always repeated.

What was measured:
[1] = Bleomycin mouse model of pulmonary fibrosis; type: in vivo
Text: The optimal dose of Bleomycin is 2 U/mouse and the optimal time for assessing fibrocyte recruitment was confirmed at day 4. At days 4 bronchoalvelolar lavage (BAL) fluids were collected for analysis of SDF-1 concentration. One half of the lung tissue was used to make single cell suspensions of the lung and the cells used for flow cytometry and assayed for CD45+, CXCR4+ and Collagen1+ (fibrocytes). The other half of the lung tissue was Sircol stained for the presence of collagen 1 and RNA will be tested for Col-1, Col-3 and SDF-1.
SDF-1, fibrocytes and collagen deposition were monitored at Day 4. Groups were dosed with the i-body just prior to administration with Bleomycin. One half of the lung tissue was minced and washed in PBS and used to make single cell suspensions of the lung with Collagenase A and dispase treatment. The cells were then used for flow cytometry and assayed for CD45+, CXCR4+ and Collagen1+ fibrocytes. […]

[2] = target: T1, human CXCR4 (CXCR4 positive lipoparticles) (Homo sapiens, UniProt P61073); assay: Biacore SPR kinetic binding to immobilised CXCR4 lipoparticles
T1 construct: purchased Integral Molecular LEV-101B
T1 sequence (P61073 whole entry): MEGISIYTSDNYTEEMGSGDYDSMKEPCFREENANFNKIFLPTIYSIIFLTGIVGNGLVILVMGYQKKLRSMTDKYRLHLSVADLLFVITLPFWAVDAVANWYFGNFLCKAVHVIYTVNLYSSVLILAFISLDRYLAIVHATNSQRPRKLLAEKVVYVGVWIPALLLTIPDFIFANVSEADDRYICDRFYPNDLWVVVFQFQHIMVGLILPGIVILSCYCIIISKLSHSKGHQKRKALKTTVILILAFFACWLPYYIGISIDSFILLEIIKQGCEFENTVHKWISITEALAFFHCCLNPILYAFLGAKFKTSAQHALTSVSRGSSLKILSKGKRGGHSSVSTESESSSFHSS
Experimental: (FIGS. 2A-2C, 5A-5C, 11A-11D, 17A-17B) Kinetic binding analysis of selected i-bodies with immobilized CXCR4 lipoparticles were performed at 25° C. using Biacore T200 instrument (GE Healthcare, Uppsala, Sweden). Streptavidin immobilization was performed in 1×HBS-P+ running buffer (10 mM HEPES, 150 mM NaCl, 0.05% [v/v] Tween-20). […] All binding experiments involving lipoparticles were performed with 1×HBS/BSA (10 mM HEPES, 150 mM NaCl, 1 mg/mL BSA) as instrument running buffer. […] In order to determine binding kinetics, serial dilutions (three-fold) of i-bodies diluted in 1×HBS/BSA were injected over immobilized lipoparticles with the association and dissociation phases monitored for 60 sec and 600 sec, respectively. A control measurement of the instrument running buffer (“zero-buffer” blank) solution was also included for double referencing purposes. Collected experimental data were processed using Scrubber software (www.biologic.com.au). Kinetic parameters (ka=association and kd=dissociation rate constants) and equilibrium dissociation constant (KD=kd/ka) were derived by fitting each set of experimental data to a Langmuir 1:1 binding model. All interaction measurements were performed in triplicate and the derived binding parameters reported as averaged values±standard deviation.

[3] = CXCR4 expressed on lipoparticles (Table 4)
[4] = off-rate, CXCR4 expressed on lipoparticles (Table 3)

Cc1ccc(=O)n(-c2ccccc2)c1 [Pirfenidone, reference compound]
recruitment of fibrocytes into the lungs ([1]; day 4, dose not given): able to block recruitment of fibrocytes
collagen content of the lung (Sircol) ([1]; positive controls, dose not stated): reduction in collagen

B1: AM3-466: affinity matured CXCR4 i-body, SEQ ID NO: 64 (protein)
chain: LQVDIVPSQGEISVGESKFFLCQVAGSGSHQRISWFSPNGEKLTPNQQRISVVWNDDSSSTLTIYNANIDDAGIYKCVVWRTGAYRHRALVLGEATVNVKIFQ
modifications: protein sequence encoding AM3-466
Ka [2, 3]: 465000 M⁻¹ s⁻¹ and 426000 M⁻¹ s⁻¹
dissociation rate constant (kd) [2, 4]: 0.00784

B2: AM4-661: affinity matured CXCR4 i-body, SEQ ID NO: 60 (protein)
chain: B1 chain with G28K, H30D, Q31F, W80Y, A84G, A89Y
modifications: protein sequence encoding AM4-661
Ka [2, 3]: 966000 M⁻¹ s⁻¹ and 983000 M⁻¹ s⁻¹
dissociation rate constant (kd) [2, 3]: 9210 M⁻¹ s⁻¹ and 9500 M⁻¹ s⁻¹
dissociation rate constant (kd) [2, 4]: 0.00955

B3: AM4-774: affinity matured i-body, CDR1 SEQ ID NO: 83, CDR3 SEQ ID NO: 84 (protein)
chain: B1 chain with G28K, H30V, Q31I, W80Y, A84G, A89Y
dissociation rate constant (kd) [2, 4]: 0.0105

B4: AM4-613: affinity matured CXCR4 i-body, SEQ ID NO: 52 (protein)
chain: B1 chain with G28K, H30D, Q31V, A84G, A89Y
modifications: protein sequence encoding AM4-613
Ka [2, 3]: 1.334e+06 M⁻¹ s⁻¹
dissociation rate constant (kd) [2, 3]: 10440 M⁻¹ s⁻¹
dissociation rate constant (kd) [2, 4]: 0.01236

B5: AM4-208: affinity matured i-body, CDR1 SEQ ID NO: 85, CDR3 SEQ ID NO: 86 (protein)
chain: B1 chain with G28K, H30E, Q31I, W80Y, A84G, A89Y
dissociation rate constant (kd) [2, 4]: 0.01283

B6: AM4-239: affinity matured i-body, CDR1 SEQ ID NO: 89, CDR3 SEQ ID NO: 90 (protein)
chain: B1 chain with S27A, G28Y, H30D, Q31I, W80Y, A84G, A89Y
dissociation rate constant (kd) [2, 4]: 0.01356

B7: AM3-32: affinity matured i-body, CDR1 SEQ ID NO: 91, CDR3 SEQ ID NO: 92 (protein)
chain: B1 chain with H30G, Q31I, R32T, A84V
dissociation rate constant (kd) [2, 4]: 0.0136

B8: AM4-757: affinity matured i-body, CDR1 SEQ ID NO: 93, CDR3 SEQ ID NO: 94 (protein)
chain: B1 chain with G28K, H30A, Q31I, W80Y, A84S, A89Y
dissociation rate constant (kd) [2, 4]: 0.01488

B9: AM4-386: affinity matured i-body, CDR1 SEQ ID NO: 95, CDR3 SEQ ID NO: 96 (protein)
chain: LQVDIVPSQGEISVGESKFFLCQVAGITSEGHISWFSPNGEKLTPNQQRISVVWNDDSSSTLTIYNANIDDAGIYKCVVETTVFNEVMRLGNGAHVYEATVNVKIFQ
dissociation rate constant (kd) [2, 4]: 0.015

B10: AM4-352: affinity matured i-body, CDR1 SEQ ID NO: 97, CDR3 SEQ ID NO: 98 (protein)
chain: B1 chain with G28K, S29D, H30D, Q31I, W80Y, A84G, A89Y
dissociation rate constant (kd) [2, 4]: 0.0152

B11: AM3-182: affinity matured i-body, CDR1 SEQ ID NO: 99, CDR3 SEQ ID NO: 100 (protein)
chain: B1 chain with S27V, S29N, Q31I, T82A, A84G
dissociation rate constant (kd) [2, 4]: 0.01562

B12: AM4-203: affinity matured i-body, CDR1 SEQ ID NO: 101, CDR3 SEQ ID NO: 102 (protein)
chain: B1 chain with G28Y, S29G, H30D, Q31I, W80Y, A84G, Y85W, A89Y
dissociation rate constant (kd) [2, 4]: 0.01621
